Reference: PMC3699631, “Posttranslational Modifications of the Histone 3 Tail and Their Impact on the Activity of Histone Lysine Demethylases In Vitro” (PLoS ONE, 2013)
“Also recorded” adds a separate entry of the source.

Target: T1, human FL-KDM4A (Homo sapiens, UniProt O75164)
T1 construct: along with the full length FL- KDM4C and FL-KDM4A using various synthetic histone tail peptides as substrates; His6 (N); made in house; host or cells: High Five (Trichoplusia ni) insect cells, baculovirus
T1 sequence (O75164 1-1064): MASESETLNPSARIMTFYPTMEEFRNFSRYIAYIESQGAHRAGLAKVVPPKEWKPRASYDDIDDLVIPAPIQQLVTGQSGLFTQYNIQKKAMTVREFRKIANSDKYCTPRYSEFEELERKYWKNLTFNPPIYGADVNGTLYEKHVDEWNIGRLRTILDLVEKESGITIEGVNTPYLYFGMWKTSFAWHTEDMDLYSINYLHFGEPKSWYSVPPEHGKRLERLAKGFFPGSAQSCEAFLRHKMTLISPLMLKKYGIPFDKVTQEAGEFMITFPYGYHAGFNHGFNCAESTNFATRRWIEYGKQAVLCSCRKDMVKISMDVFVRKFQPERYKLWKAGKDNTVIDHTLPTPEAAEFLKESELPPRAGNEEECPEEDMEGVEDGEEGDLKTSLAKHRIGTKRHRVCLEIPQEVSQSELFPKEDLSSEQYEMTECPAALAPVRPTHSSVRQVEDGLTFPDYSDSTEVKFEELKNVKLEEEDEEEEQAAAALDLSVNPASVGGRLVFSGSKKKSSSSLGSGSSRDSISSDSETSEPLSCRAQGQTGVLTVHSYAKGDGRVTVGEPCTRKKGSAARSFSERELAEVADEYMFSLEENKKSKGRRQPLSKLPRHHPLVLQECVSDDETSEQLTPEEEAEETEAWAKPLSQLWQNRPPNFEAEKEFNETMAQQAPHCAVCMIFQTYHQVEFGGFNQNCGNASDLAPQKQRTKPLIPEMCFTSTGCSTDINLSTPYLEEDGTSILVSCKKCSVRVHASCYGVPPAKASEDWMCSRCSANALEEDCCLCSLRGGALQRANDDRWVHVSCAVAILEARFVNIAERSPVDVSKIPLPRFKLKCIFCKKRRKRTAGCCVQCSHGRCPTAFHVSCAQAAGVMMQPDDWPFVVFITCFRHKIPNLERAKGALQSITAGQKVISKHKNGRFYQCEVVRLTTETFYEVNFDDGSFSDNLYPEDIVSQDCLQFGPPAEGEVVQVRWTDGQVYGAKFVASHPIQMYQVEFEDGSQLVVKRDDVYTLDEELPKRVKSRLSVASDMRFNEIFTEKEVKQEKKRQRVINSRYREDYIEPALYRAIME
Experiment: FDH-assay enzyme kinetics of H3 peptide demethylation, full length KDM4A
Assay type: biochemical
Set-up: key to K m / k cat / k cat /K m: 0 means no demethylation could be detected
Conditions: for demethylation / catalytic activity (in words) / K m / k cat / k cat /K m: FDH-assay; for K m: 50 mM HEPES (pH 7.5), 50 mM NaCl, 50 µM FeSO4, 500 µM α-KG, 500 µM ascorbate, 2 mM NAD, substrate 10–1000 µM, NADH fluorescence 15–30 minutes; for K m / k cat: triplicate; for k cat: pH 7.5, NADH fluorescence; for k cat /K m: pH 7.5, triplicate
Description: The enzyme kinetics were measured using a Formaldehyde DeHydrogenase Assay (FDH-Assay) and the demethylation of substrates was confirmed when possible by MALDI-TOF-MS, see File S1 for details. The test solution contained 50 mM HEPES (pH 7.5), 50 mM NaCl, 50 µM FeSO4, 500 µM α-KG, 500 µM ascorbate, 2 mM NAD, approximately 0.05 unit of FDH and e.g. 4.88 µM KDM4C (enzyme concentration varied between batches). The reference solution was comprised of the same except substrate. The assay was initiated by adding various concentrations of H3 peptide substrates e.g. H3(1–24)K9me3 (10–1000 µM) and the increase in NADH fluorescence was measured over 15–30 minutes in 30 second intervals. Data analysis and kinetic values were obtained using programs Excel and GraphPad Prism® 5.0. For details, see File S1.
The standard deviations for k cat/K m were calculated using the statistic law of propagation of errors. Standard errors for Michaelis-Menten Kinetics were automatically given in GraphPad Prism®, with a 95% confidence interval. All enzyme kinetic curves were done in triplicate unless otherwise stated.
Test for activity of enzyme using the fluorescence FDH assay, determination of Vmax and Km of enzymes with substrate, expression and purification of cc-KDM4A and cc-KDM4C software and parameters for the FDH coupled assay, see Lohse et al.^21
Recombinant baculoviridae encoding the full Open Reading Frame (ORF) of FL-KDM4A and FL-KDM4C were generously donated from the Biotech Research and Innovation Centre (BRIC), University of Copenhagen, Denmark. Recombinant protein was expressed by adding High Titer Stocks to High Five (Trichopulsia ni) insect cells in suspension culture. The cell cultures were harvested by centrifugation after ~ 60 hours and the cells were resuspended in hypotonic buffer (25 mM Hepes-KOH, pH 7.7, 1.5 mM MgCl, 5 mM KCl) supplemented with one protease inhibitor cocktail tablet per 500 ml expression (Roche, EDTA-free). The resuspended cells were frozen at -20 °C.
Both proteins were purified by IMAC using Talon FF (Clontech) cobalt resin according to the following protocol; resuspended cells were thawed on ice, 100 ml hypotonic buffer was added per 500 ml expression volume and the cells were incubated with stirring for 30 min. at 4 °C, followed by a brief (30 s per 500 ml culture volume) sonication. β-mercaptoethanol (BME, 2 mM final concentration), Triton X-100 (0.2 % final concentration) and NaCl (300 mM final concentration) were added and the cell suspension was stirred for another 30 min at 4 °C. The lysate was cleared by centrifugation at 50.000 g for 60 minutes. The cleared lysates were adjusted to 5 mM imidazole and incubated with Talon resin (1 ml /500 ml expression) for 60 minutes. The resin was allowed to sediment, the lysate removed and the resin was transferred to PD-10 gravity flow columns (GE Healthcare). The resin was washed with 10 column volumes of binding buffer (50 mM Hepes-KOH, pH 7.7, 300 mM NaCl, 5 mM imidazole, 10% glycerol, 0.05 % Triton X-100, 2 mM BME) and eluted with 2 x 2.5 ml elution buffer (50 mM Hepes-KOH, pH 7.7, 300 mM NaCl, 100 mM imidazole, 10 % glycerol, 0.05 % Triton X-100, 2 mM BME). Each eluted fraction has its buffer changed to 50 mM Hepes pH 7.5, 300 mM NaCl, 10 % glycerol using a PD-10 desalting column. The protein was concentrated to 6-7 mg/ml (FL-KDM4A) or 10-12 mg/ml (FL-KDM4C). Despite the buffer change it is likely that small amounts of Triton X-100 remained in the protein samples. Triton X-100 has a significant absorbance at 280 nm, so the protein concentration was determined by Bradford assay using a BSA standard curve. The protein purity was approximately 70 % as judged from SDS-PAGE. The concentrated protein was aliquoted and stored at -80 °C until assays were performed.
The standard deviations for kcat/ Km were calculated using the statistic law of propagation of errors. […]

[1] = SD by propagation of errors, unit: (min^−1 * µM^−1) * 10^3

Question: Which “demethylation / catalytic activity (in words)” value does the source give for “H3(1–24)K4me3K9me3: bis-tri-methylated substrate, trimethylated K4 in combination with H3K9me3” here?
Answer: The value was “an increase in FL-KDM4A demethylation activity, which is significantly higher compared to cc-KDM4A”.

Question: And the K m?
Answer: Its K m is 45±9.

Question: What about the k cat of the same substance?
Answer: The k cat was 2.2±0.3.

Question: And the “fold increase in k cat/K m” value (compared to H3(1–24)K9me3)?
Answer: The value was 17 fold.

Question: What about the “k cat /K m” value (figures) of the same substance?
Answer: The value was 50 ± 9 min^-1 * μM^-1 * 10^3.

Question: With “H3(1–24)K9me2: truncated histone tail, 24 first amino acids from the N-terminus of H3, dimethylated lysine 9” as the substance, how does the “demethylation / catalytic activity (in words)” value read?
Answer: The value was “too low to be detected; also recorded: could not be detected”.

Question: And the K m?
Answer: The K m was 0.

Question: What about the k cat of the same substance?
Answer: The k cat was 0.

Question: What about the “k cat /K m” value [1] of the same substance?
Answer: The value was 0.

Question: For “H3(1–24)K9me3: truncated histone tail, 24 first amino acids from the N-terminus of H3, trimethylated lysine 9; control peptide”, which “demethylation / catalytic activity (in words)” value is on record?
Answer: The value was “preference for the H3K9me3 over the H3K9me2”.

Question: What about the K m of the same substance?
Answer: The K m was 122±31.

Question: What about the “k cat /K m” value [1] of the same substance?
Answer: Its value is 3.1±0.3.

Question: What about the “k cat /K m” value (figures) of the same substance?
Answer: The value was 3 ± 0.4 min^-1 * μM^-1 * 10^3.

Question: “H3(1–24)K9me3T11(ph): H3(1–24)K9me3 with phosphorylation of threonine 11” was tested. Which “demethylation / catalytic activity (in words)” value did it give?
Answer: The value was “no detectable turnover”.

Question: And the K m?
Answer: The K m was 0.

Question: What about the k cat of the same substance?
Answer: The k cat was 0.

Question: And the “k cat /K m” value [1]?
Answer: The value was 0.
